Test results as given in the DeepSol protein solubility set.

experiment: soluble on expression in E. coli; label from the status in PepcDB or PDB records

Row | Sequence | soluble on expression in E. coli
1 | MGSDKIHHHHHHMSQNASNDHMALSEDYVRNFFTYADPDNEAMLQLYRIGVFRTAKALSAGWIMPDEDARTARNLEYLRDNFEPGDVSVGELVSSETQLASFPDIYFRIRKVLDSPNSSADDISREISNDLGLTAKLLKLVNSPFYGLAHTVEDVSHAIAIVGVEEVSTLALGISAINVFKDIPQELIDMKAFWKHSVSCGVFAKLIASRIEGMKADKFFTAGLLHDVGRLIIFKKMPYASVQLLLYARENQLPVVESEEDHLGFDHTQVAKQLLTEWKFPASMVDCLAFHHAPSQAQDQLAASILQLADNMANAMEISSGGMYLLPGMEEGAWERIPLQGDDLVEIVGLFDSHIEELFKAIL | not soluble
2 | MGEELNRLLDVLGNETRRRILFLLTKRPYFVSELSRELGVGQKAVLEHLRILEEAGLIESRVEKIPRGRPRKYYMIKKGLRLEILLTPTLFGSEMYEAKGVRKSPEYEQAKELIKSQEPINVKMRELAEFLHELNERIREIIEEKRELEEARILIETYIENTMRRLAEENRQIIEEIFRDIEKILPPGYARSLKEKFLNINI | soluble
3 | MAHHHHHHMRRTIRVFTGKLLWEDFTNTRLITINREKALNSMDLEMVKAMQRAYVHEPHAKGDSALFVVKGAGNKSFCAGGDIVSLKDRYDVAAEFFYTEYQMNYHILTMPNPQVSLWDGYVMGGGVGVSVHGRYRVASERAVFAMPETAIGLFPDVGASWFLPRLKMKGLGLYLGLTGARLKGADVAHTGLATHYVPSARFCELEERLCHIDDPAKVEACLEEFAVRDLPPFTLEPHRETIEKSFALEEKTTVEGIYESLSADGGEFAKGTINTLNRMAPTSLRVSLEMQKRGVKMTDPADVFRMDYIGSLRTHANSDFHEGVRALLVDKTKDPKWKPAKLSDVTADYVEAYFKPMGNQARQWHPTVPY | soluble
4 | MGSDKIHHHHHHMTIWVRNGNNAATEQEISAKETELGLFLPAEYKELLLKQNGGLIRKNHFPTNEPTSYGLDVAEIYYLASLNELLTDIPEQNDVDLAGKQVYFHRDESRYIGFSYADNKSLPSIIYVDFETLQTLVVAENMAEFLEALYFSPFPVDFAEQFPVKKLDQILASSNVKKTKQLLELLEDYPDKKWYLETLIRLLQKNEIPYNIVVYQSFENQLLYFRRKLVPELVEKIFAMLKDCDGIDQSATTELYKEWE | not soluble
5 | MSLNELPRPDMMFGLKVVLAATDFSARSDRAVRRAAALARQSGARLVIAHVVDDDQPEHIVAVEVELAESALADAIREHTYLAGLQCTPLVLLGTPFDAIVRAAHQQGADLCVVGSHRRAFLRDIFAGTTAERVIRNSTVPVLMANLDPALPYAKSLAPVDLTDCSAQALETARQLGLLQRTKLIVMHVYDAAAAGMLNYAGVDKTSLDDYLVDTRTDAVRDLVRFLEPLRLDDVDYSTVVKEGAGPATDIIEAATELRPDLVVIGTHARRGAVRLLLSSVTEEVLRRLQRDILVVPVRDAGSEGHHHHHH | soluble
6 | MAHHHHHHMEKTIITLLPVVEKAPKENMERVLDVFRHYLKRYGADHYIYNAVMQAAAFAKNYEQAEQLFKEMETLGLEPNAQSYVNMMLAAKLCGLPPEKSEAYFKRAVKDGAMQSVMRMDTEFRMWMDQLDRLGSFTASSGYLSVNEEGAKPMPRDMWAIWGWHRSESKFISRRDLIMQQVRARVHSGKELVGTVYTKTRRQPWAKFNGMLRHDYNGPSYRAPTIFPDAPEYTNEAGHKAF | not soluble
7 | MGSDKIHHHHHHMEIKQLRYFIEVAKREHISETALELNIAQSAISRQITLLEQELNVSLFKKQGRNITLTSEGKLLFNEALRIIEHLDSTIEQFQSHGLTKNKSIYIGYDESDVSHMLLPLIQTFHLQNDTHVIPSLLDHDTIINSVLNGNIDIGFTELTPEIRKHKQLHMLPLFEEHYHLYAPSDDPITMATHPPLIQFEHSHIYCLAPFAETVKKQLRKITKSDVYTISSQPLAQYLLRQKEGYIISSQNIHLPESKSWIDIKLDHTELKRTICAITKEPYTKSDIGILLTLIQQLMTKTSTFH | not soluble
8 | MNIDLTPYYAEPGEQPFSARRMAMPWRNHVPLSPEQIPAGWQTLKQQSVPARKRLLYLHIPFCATHCTFCGFYQNKLRDDSTATYTRYLLQELAMEADSPLHQSAPIHAVYFGGGTPTALAADELSQIIRAIRTSLPLAPDCEITVEGRAMDFDDERIDACLDAGANRFSIGIQTFDTRIRQRMARTSDKQQSIRFLERLCGRDRAAVVCDLMFGLPGQTPEIWREDLAIVSDLPLDGVDLYALNLLPTTPLAKAAENQRVALPDVVARRDFYRTGAAFLADSGWHQLSNSHWARTTRERNLYNLLIKQGADCLAMGSGAGGNINGQAYMMERSLERYYQQIDQGQKPIMMMTPASSTGPWQHQLQAGIEVGRIKLPQLTQHARELQPLLSQWHQAGLTCDDSTCLRLTNDGRFWANNLMQALQQIIPQLNAEEHAHLEHHHHHH | soluble
9 | GSLRPLSEVNQHSQLMAQLVEVIEDSFQMKVNKESVNYLRLIRHIRFTIERIKKEEPTKEPEKLMLLLKNEYPLCYNTAWKLIKILQQTLKKPVHEAEAVYLTLHLIPINQ | soluble
10 | MNNMKKYLSLCIMLLCLCSTVMAQQEKVVVKGVVTDEAKEPLIGVNVTVKDMPGLGSITDMNGHYSITMEPYRQLVFTYIGYESKEVMVKEQRTINVVMKESVTRAVDEVVITGTGVQRKLTQTGAITTVDVGELKRNPSSSIVNALAGNVPGIMARQTSGQPGKNISEFWIRGISTFGANSSAYVLVDGFERSMDEINIEDIETFTVLKDASATAIYGSKGANGVVLITTKRGKAGKIKIDAKVETTYNTRTVLQSSKTDLLMPA | not soluble
11 | MGSDKIHHHHHHMYSLAVNNGTLSDEQISGLVHQALADRQLDGQRILILIPDGTRTAPIPQIFRLLHQELGKRVPALDFLIALGTHNPMSEEQINHLVGVTPKERETTFKKVRIFNHLWNEPDTFISCGVISADEIAEISRGMLHQSVEVRVNKLVTQYDLIMICGPVFPHEVVGFSGGNKYFFPGIGGQEVIDISHWLGALITSYEIIGTSGITPVRRLINRAANLISTPKLCLAMVVAPKTNQLAGLYIDKPESAWEAAAKLSDKLHITYVDRSFKQVLSVMPEMYDDIWTAAKGMYKLEPVVADGGEVIIYAPHITEFSYTHGEILSQIGYHVRDYFLKQWDKFQAYPGGVLAHSTHLKGMGTFDFTEGEKARIRVTLATGISAERCAAHNLNYRDPATIRPTEWANREDEGILLVPKSGEILYRLIQA | not soluble
12 | MKLACKIYNTLRWADIYFYQRDGKGLTQTELRQLALDLRKQDDEYKQLYSQVVQQIADRYYEARQRFFEGLARFPKEKKPHKYYSLVYPQYGWKILQVREIRKGSKKNKKRLITLKLSNLGTFKVIIHRDFPLDKVKRVVVKLTRSERIYITFVVEDYEFPKLPNTGKVVAIDVGIEKLIVTSDGEYFPNLRPYEKALWKVKHLHRELSRKKFLSNNWFKAKVKLARAYEHLKNLRTDLYMKLGKWFAEHYDVVVMEDIHVKQLIGKSLRSLRRRLSDVAFSELRDLIKYQLEKYGKKLILVNPAYTSKTCARCGYVKEDLSLSDRVFVCSNCGWIADRDYNASLNILRGSGSERPLVWSSALYQYQHFGTGMAELLEHHHHHH | soluble
13 | MSRVCQVTGKRVQTGNNVSHANNKTRRRFLPNLHKRRFWVASENRWVKLRVSTCAVRTIDKNGIDAVLAELRASGEKVLEHHHHHH | not soluble
14 | MGSDKIHHHHHHMIIELFGPPGAGKTTLLRGLCQGMAKHGINVKTVNGYRLIEYGSAQEDGPEVRHGIGRIGKKIATSGPVLLSTLPKDGVAARLLASIPLRSLTWSWRMKVDIALLCESWRQAQESEGYFIFEEGIIQALCALVVLARTPSIDVVRDCLAFLPRPDLLIQLDAPQETLRRRLMDRHAQQPLLEVLLFELGVDRGLRQADISRDIGKCLRQDGWPLIKVNGAEPHDLDKIITRILEEHETVPV | not soluble
15 | MGSDKIHHHHHHMGKKHTSSYEVAYYDGDFTGAMKIPALLAVVIKVSEEQTELLGRDAAYVAQFGLGWVITNYEIEIHRLPKVGEKVAITTQAMSYNKYFCYRNFWVHDEEGKECVFVKSTFVLMDQKNRKISSVLPEIIAPFASAAITKIYRHEKIEKVTEGNFLPYRVRFFDIDGNQHVNNAIYFNWLLDVLGYDFLTTHQPKKILVKFDKEVEYGQEVESHYEIVEQENQLKTRHEIRIDGQTYCEANIDWTN | not soluble
16 | MSLHWSFPEMIRLFSDEYRSSMLSEGNFGVERESQRVNYSGDLALTPHPSVFGDKFENPRITTDFSESQIEMITPPLKSAEEVYKALNDINNEVKNALKGELLWPLSMPPRLPKEEDIPVAQFPDTEDGRQKQIYRNGLALRYGKKMQMISGIHYNFSFSDKMIDFIYRQLRIEKTKRQFIDEMYFSLTRNFLRYHWILIYLFGASPICDSTYNSVIFKELEKIEKCCPHCAGKIKNFNRYATSLRVSRFGYSDTDEKKYTVYFNSLREYETKIKKMMETESNKYSKLGIYKDGVQIQLNGNLLQSESEFYAPIRFKRNIKKGETQLTALVNRGVEYIEIRILDVNPFDKVGISVEQMNFLQVFNVFCLFEESKSIDEEQMERINTNHQLAALLGRNEDLMLYKYNDDSRIPLKNFGDEIFEKLRIVAKLMDKDNVEKKYSESVESEYKKLHNIELLPSERICREMDNDNRSYIQFGMEYAEAEGHHHHHH | not soluble
17 | MKLGNVVIVLGKRLVNNQLSAEGISRVEALAAKIREMPMENTALVFCGGKTQGQSISEADAMYAYFQTLNTSLAKPFPTSQTLLENRSLNTFENMRNAAKVLCESGLFPLPSQATVEVILLSNVYHLERILEIQTLMDEQGLLRVIKSQCASVGLDLHISLDIQKHISVPYPHQGPQAEAFLLLDELTTYRVYLEGVKSGAFQRDLTSVRAQPLLRAKQAISQLRALPLEMDVLQQIAEMKKAIEMTAFDESVATAERALEMFHPILTALNRRLDPESIQAAALEHHHHHH | soluble
18 | IIPISNFFQMVDALAEVSSTRIRLQEEILAGSWESLNTGRADLLVCPSLDTLPQEVKAEKIGKMSMIWVAATEHYVHKRSGEFDDSAREKYRIIAIADTAREQPALSINIIQKQPRLTVTNFTAKVEALTAGLGIGTLPRQIALPLIEKGVLKQIEGTEEQPMDIILAWRRNTMGEAKSWCIQYLKKNWKLK | not soluble
19 | MGSDKIHHHHHHMKKLENKKSSSIKLETVRRKTINLSETEFIKIDFLTHWETLPIVLKPNIDYLDLADWIESSQNFIETKLLKYGAILFRGFNVDTATTFERVCLALCSDLFNENGEHPRKSVSGKVYTPVSYPADKKLLWHNENSFNYSWPRKILFGCLQPAQQGGETPIVDSRIVFQLIDPKIRERFIDKKVMYIRNYGDRLGLNWETVFQTSDRLEVEAACTKAAIDFEWKTGNRLRTIAVRPAVVKHPQTKEMSWFNQAQHWHPACLDSQTRESLLSMFKQEDLPRNCYYGDGSLIEDSVLEEICGVYQQLEVSFPWKRGDLLLLDNLLTAHSRNSYMGERQLLVAMGEMANFEDV | not soluble
20 | AKADSEQGNGEDKGTGTKGDGTGRGEGSGKGSGGVKGEHGEGAGSSKGNPLRANGSIPRPAYPTLSMENDEQGTVVLSVLVSPGGHVESVKIVKSSGFSRLDNAARKAAQNGHFQANAWTEFKVPVKFELN | soluble
